Experimental data as given in the DeepSol protein solubility set.

Assay: soluble on expression in E. coli; label from the status in PepcDB or PDB records

| Sequence | soluble on expression in E. coli |
| --- | --- |
| MLYALLLLFGGVSTVSSLRVAVVGEGVIGLSTATAILDLAEKRNIPAPEIHIFHHKPFEKILSRHIAGLFRIDSGSEIDRKYGYDTFEKLATLWREYGGLSGVQLVSGHILSDSKTKLDSQRESYGSLVYNYRDLAEPELFGPTSLFDLPRNTTTRGIHYTAYTSEGLRFCPFLKKELMTKGVRFTQRRIGNLEELGAEFDVVVNSAGLLGGVLAGDDAGNMKPIRGVLIRVDAPWQKHFLYRDFSTITIPVIDHVYMGTVKQEGAFGPNNVTSADIQDITSRYVALQPSFKRVHMLSSFVGYRPGRKQVRVEKQIRETNGSKKFTVVHNYGHSGNGFTLGYGSAVHAAHIVLDLPLDAYHGLVPEPLPINATISEWVKYLDD | not soluble |
| FSIAVTGATGQLGGLVIQHLMAAVPASQIIAIVRNVEKASTLADQGVEVRHGDYNQPESLQKAFAGVSKLLFISGPHYDNTLLIVQHANVVKAARDAGVKHIAYTGYAFAEESIIPLAHVHLATEYATRTTNIPYTFLRNALYTDFFVNEGLRASTESGAIVTNAGSGIVNSVTRNELALAAATVLTEEGHENKTYNLVSNQPWTFDELAQILSEVSGKKVVHQPVSFEEEKNFMVNAGVPEPFAEITAAIYDAISKGEASKTSDDLQKLIGSLTPLKETVKQALKM | soluble |
| MSLEAIRIGEINSYSQIPAFTLPYRNGWQLAVEQINAAGGLLGGRPLEVISRDDGGDPGKAVTAAQELLTRHGVHALAGTFLSHVGLAVSDFARQRKVLFMASEPLTDALTWEKGNRYTYRLRPSTYMQAAMLAAEAAKLPITRWATIAPNYEYGQSAVARFKELLLAARPEVTFVAEQWPALYKLDAGPTVQALQQAEPEGLFNVLFGADLPKFVREGRVRGLFAGRQVVSMLTGEPEYLNPLKDEAPEGWIVTGYPWYDIDTAPHRAFVEAYRARWKEDPFVGSLVGYNTLTAMAVAFEKAGGTESETLVETLKDMAFSTPMGPLSFRASDHQSTMGAWVGRTALRDGKGVMVDWRYVDGGSVLPPPEVVSAWRPAGEGHHHHHH | soluble |
| MSLKGQNQHSVLRNFPVLGRIRYISEKIGPELRQYFFANDNEGKPFSRSDYKNIVLAGKYKSRMTSFGTGKDYLEGFYIQNTMFPLQATELHIDHTEFISTFLYHIENERLFSREEYRKSAQVDPFFLTDEHAVVLGSNLKHPFKIKRLVGQSGMSYGALGKNAITALSMGLAKAGTWMNTGEGGLSEYHLKGNGDIIYQIGPGLFGVRDHDGNFNRDMFINLAEHNNVRAFEIKLAQGAKTRGGHMEGNKVTEEIARIRNVKPYETINSPNRFDFIKNPTDLLNFVNHLQSIGQKPVGFKIVVSKVEEIEALVKTMIEIDTYPSFITVDGGEGGTGATFQELEDGVGLPLFTALPIVSSMLEKYGIRNKVKIFASGKLVTPDKIAIALGLGADLVNIARGMMISVGCIMSQQCHLNTCPVGVATTDPKKEKGLIVDEKQYRVTNYVTSLHEGLFNIAAAVGVHSPTEITSDHIIYRQLDGTTTSIQDYKLKLISEGHHHHHH | not soluble |
| MTFSCEPAELRSRAKAAFIGLAVGDALGAPVEFMTTGEIKAKHGVLREIVGGGWLRLKPGQVTDDTDMSLCVARGVAKAGEWNLTAIAEEFAAWLRSKPVDVGDTCRRGIRNYMLKGLLETPFNQWDAGNGAAMRMLPTALFTMGDDNLLCRCAVEQGHLTHNHPLSDAACITLGRLVHLSVLGFSKPRLRREADRLTESHPTFSFEPYRGLATGYVVDTMQTVLHFFFRGRDFEECLVSTVNQGGDADTTGAIIGMVAGAYYGMEEIPRRWLKKMDRQVLDEIDTLSDLLISLSPALRSGNGILLPPA | not soluble |
| MSGGSSRRYPPELRERAVRMVAEIRGQHDSEWAAISEVARLLGVGCAETVRKWVRQAQVDAGARPGTTTEESAELKRLRRDNAELRRANAILKTASAFFAAELDRPAR | soluble |
| MIEAALENPVPIKSQLSPTPRYFGSCKWFNVSKGYGFVIDDITGEDLFVHQSNLNMQGFRSLDEGERVSYYIQERSNGKGREAYAVSGEVEGQGLKGSRIHPLGRKKAVSLRCFRCGKFATHKAKSCPNVKTDAKVCYTCGSEEHVSSICPERRRKHRPEQVAAEEAEAARMAAEKSSPTTSDDDIREKNSNSSDE | soluble |
| MASSTTFVIVGGGLAGAKAVEALRRSDFGGRIILFGDEEHLPYDRPPLSKEFLAGKKSLSDFTIQTSDWYRDHDVDVRLGVRVSSLDRSAHTVELPDGAAVRYDKLLLATGSAPRRPPIPGSDAAGVHYLRSYNDAVALNSVLVQGSSLAVVGAGWIGLEVAASARQRGVDVTVVETAIQPLLAALGEAVGKVFADLHRDQGVDLRLQTQLEEITAADGKATGLKMRDGSTVAADAVLVAVGAKPNVELAQQAGLAMGEGGVLVDASLRTSDPDIYAVGDIAAAEHPLLGTRVRTEHWANALKQPAVAAAGMLGRPGEYAELPYLFTDQYDLGMEYVGHAPSCDRVVFRGNVAGREFLSFWLDGDSRVLAGMNVNVWDVVDDVKGLIRSGNPVDVDRLVDPQWPLADLTTN | not soluble |
| MPTPLTHWSRWMQTASRFVDEYPNFSVLPPPPLRAPPPHSKISDRRSV | not soluble |
| MAHHHHHHMANAELVDAGCFITQMNELLLIDPLYLNCAMTNYCNSYLSGKEELLPRERLNGIYFKNAKPGLWSSFAIRENSQAHLKKTAKQETETDAANRNDKNTYNNIRNEMVLSFVCFNNTNYMHQYLTVEEVDKLHWERMEPSEGHPGVGPTDKCSSTVDGDSKNEKVANFHNDRSELLPLENYFTNVLTIESGQAGLFCIDSIKNSADLLFQKHGMKNISSREQLDILFNQNMNDLYPWFDQICNLTMTSSVAVVDFMGMPIGCVCLSSSDCVVNYLCEVVRDEVTDEVWAIRVNFLAPLK | not soluble |
| MISIDPQFIKNFSKKVKQFDKFSLFVHVNPDFDAFGSAFAFKTFLNTFFSEKKAYVMGSYNINADGRELFPFEQTDINDDFVKESLAIIFDTSNQERVLTQKHKLAKETVRIDHHPRTEKFADMEWIDSSFSATAEMIGYLILQMGYKLNDEIASYLYAGIITDTQRFWGPTTTPQTFALTAKLMETGFNRNKVHDAVYLKPLLEHKYFSYVLSKAKITKNGLAYALIKKGAYKHFGVVSPLPMVHALNNIKGVKIWTTVYFNESIKKWIGSIRSRNIPINNFAQMFNGGGHKYAAAFVLDEKNQFMKLVQIMDDFLAKQNENS | not soluble |
| MSEAGSTVPFDFSSYGGEIDDLATRGLADAAGAEGIRTAMARVTGRAEEVQASRLSANEQNLIACGPGCADCCRVNVTVLLPEAIAIAAYLEEIGKGDETNAITMRVADTAARVRWMEDDERIRAGVACPFLDGRGWCAIYPVRPLTCRALSSTDPEQCRRALAAHCSDEEETIVVNIFQKFLMEGTFQSLARAMERAGLDTTGRELCRSVTRCLLDPRLADDFLAGKRIKFPESLEHHHHHH | soluble |
| MILLFGGTTEGRQAAALCDRLGLPFIYSTKTRVEPFATACGEFRHGALDEAALSELVSSSGVRLVIDAAHPFAARLHRSLFEVCQHLAVRLIRFDRPSVDVPDFEGLHSVADFTEALALLDRLNPAKLLALTGVQSIAPLRPWWEQHDMLLRILPTQASMELARREGIPEAQLLPMNPDSSDEALEKLVRKHGVDCLLAKESGESGFFSSKLRVAERCAIPLIVIRRPPAPAYDVVATSVEELEALLPD | soluble |
| MGSDKIHHHHHHYYLIVSQLLGDTASVKLLVPPGANPHLFSLKPSDAKTLEEADLIVANGLGLEPYLEKYREKTVFVSDFIPALLLIDDNPHIWLDPFFLKYYIVPGLYQVLIEKFPEKQSEIKQKAEEIVSGLDTVIRDSFKALLPYTGKTVVMAHPSFTYFFKEFGLELITLSSGHEHSTSFSTIKEILRKKEQIVALFREPQQPAEILSSLEKELRMKSFVLDPLGVNGEKTIVELLRKNLSVIQEALK | not soluble |
| MELKHSISDYTEAEFLEFVKKIARAEGATECDDNKLVREFERLTEHPDGSDLIYYPRDDREDSPEGIVKEIKEWRAANGKSGFKQG | soluble |
| MLLKRRLFIAASLFAMHLSPALAADAVSFAPQPPAIDAGAWVLMDYTTGQVLTAGNEHQQRNPASLTKLMTGYVVDRAIDSHRISPDDIVTVGRDAWAKDNPVFVGSSLMFLKEGDRVSVRDLSRGLIVDSGNDACVALADYIAGGQPQFVAMMNSYVKKLNLQDTHFETVHGLDAPGQHSSAYDLAVLSRAIIHGEPEFYHMYSEKSLTWNGITQQNRNGLLWDKTMHIDGLKTGHTSGAGFNLIASAVDGQRRLIAVVMGAKSSKGREEQARKLLQWGQQNFATVQILHSGKKVGSERIWYGDKEKIALGTEQDFWMALPKAEIPHIKAKYVLDRKELEAPIAAHQQVGEIELYDRDKLIAQWPLVTLESVGKGGMFSRLSDYFQHKA | not soluble |
